{"source": "paper PMC6302171", "biological_target": "GFP-profilin-1 (UniProt P07737)", "sequence (P07737 2-140)": "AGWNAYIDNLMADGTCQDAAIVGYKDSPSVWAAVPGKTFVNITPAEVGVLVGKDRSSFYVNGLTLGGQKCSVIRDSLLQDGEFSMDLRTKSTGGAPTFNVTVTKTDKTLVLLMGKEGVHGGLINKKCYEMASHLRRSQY", "assay": "co-immunoprecipitation, densitometric analysis of immunoblots", "conditions": "HEK293 cells; cell lysate (1 mg); three independent experiments; parent: est. 6.8; read off a plot"}
{"substance": "3×FLAG-CLIC4 WT, Q9Y696 C35A", "values": [{"measurement": "response", "result": 2, "unit": "A.U."}]}
